Target: PRR (UniProt P10636)
Experiment: fluorescence correlation spectroscopy

Chain of UniProt P10636 (P10636 466-561): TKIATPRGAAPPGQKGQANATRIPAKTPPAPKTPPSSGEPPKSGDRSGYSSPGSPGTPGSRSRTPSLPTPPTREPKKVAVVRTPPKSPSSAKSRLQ
Chain of tubulin (Q6B856 whole entry, looked up): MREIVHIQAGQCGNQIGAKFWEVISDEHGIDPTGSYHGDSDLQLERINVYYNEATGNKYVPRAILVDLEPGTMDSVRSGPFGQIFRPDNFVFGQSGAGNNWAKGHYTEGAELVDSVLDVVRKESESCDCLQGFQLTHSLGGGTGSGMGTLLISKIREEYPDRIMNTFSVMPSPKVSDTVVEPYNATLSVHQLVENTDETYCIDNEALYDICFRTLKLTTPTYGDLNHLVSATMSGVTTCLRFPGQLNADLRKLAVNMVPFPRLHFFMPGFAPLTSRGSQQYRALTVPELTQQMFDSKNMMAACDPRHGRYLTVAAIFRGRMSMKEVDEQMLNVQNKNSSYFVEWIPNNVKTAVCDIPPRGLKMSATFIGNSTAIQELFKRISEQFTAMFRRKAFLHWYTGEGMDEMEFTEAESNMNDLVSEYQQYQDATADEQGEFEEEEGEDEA

Kd: 900 nM
stoichiometry N (tubulin dimers per PRR): 2
Substance: tubulin (from UniProt Q6B856 1-445) (complex)

Reference: doi:10.1101/633420
